In the DeepSol protein solubility set:

Experiment: soluble on expression in E. coli; label from the status in PepcDB or PDB records

| Sequence | soluble on expression in E. coli |
| --- | --- |
| MDGILSHNSKKTADFDEYELYRRLKSWYKEDVEHVNEWREQAREDFDFYNGRQWAEEDLAVLKAQRRPVMTFNRIAPLVNAIVGAERNNKREVQFQPRQAGAAISNELLTGAAEWFRDEAEAEYADSDAFQDMVICGMGWTDTRLDYETDPEGIPAIQRLDPLKMVWDANAVRPNLIDAQRMWYVDRKPVEDAKSLFPDVAVEDLHADWATDNTTACEEYHVSLDAYNDHANADSLSQSASEKRYVTLVECRWFEYEVYFKAPDLQTGQMRSYSKQEFEQLQRVAPQLQGVRFNKKVVKRAFLGRRLLAKPDKPLAPDGQLGWECITGTLDKLKNQFYGIVRPAKDPQKWSNKYFSQVMYILNSQAKGGLMAERGAFDDERQALENWTRTDTITWVKNGALTGGKIQPKPSAQFPNGFFQLFNESREAITHVTGLSAEFIGTREVNQANVLENTRRQSTLNLLAGLFDNLKLYRCRQGKIILYLIQNYLSDGRLVRISGPENAQYVPLTREAVTKLEYDIIVDDSPTSPNEKERTFAAITQMLPLLGGFLTPEMIPDLLKLSPLPATLVANLTAKAQQAQQEQQQQQMMQQNQGTQLNPEQQAKIAALQQEAQAKGTLYQLDAQQKQLALQQKNIELFLKQEQARMQLELQRAKNEIAQRDLERKSLQAQLEHYRVLTKRLIPH | not soluble |
| MAHHHHHHMPLIVPTPPAHPAQSPNQANGELLGRLMKLYRALCVRHDELGQEVILNDILAFLTRTHQHDMAESVIATCEISLPHRSNNQAARYFYYVGLTRALRLEYVDANQCLQQALRKAPERAFGFRVAATKLALVVQLLLGEIPPRSDFLQKDMRESLSPYLQLASCVRFGQLSRFMSILQQHKNIFEHDRTYSLILRVRQHVIKTGLRRICHAYSRISIPDICFKLSMENPADAEYIIAKAIRDGVIDAVIDHEKGHLISSDTVDVYSTSEPLLALQRRIQFLNVTHNDAKRSMRYTAADPELEEERRKVDREEMDSALRAALEDEELGGTDFEDGLP | not soluble |
| MSLATESDETSLDFPDHALERVRDILRLRRNFDISSYKDKYLKRRIAIRVRATRSVTADAYCDLVARNERELELLLKGLTIHVSQFFRNSSTFEALRGTVLPAIFDRLRREGRDSATFWSVGCASGEEPYSLAIILRDSFRESLKEFKVSLVATDIDGGILDAARAGIYSPERLAEVPAEVKDRYFRPMGERFVLDPTIREMVDFRRSDLFDPESSVESDLILCRNVLIYFERSEQARILRGFVSSLCTGGVLVLGKAETLVAEVRQRFTTLCPMERIYQKNRFSVYEGHHHHHH | soluble |
| MSLNSVPNDLQTWKRFVKDGVLDEARLRKRIAESWHRCKKAEVNPYLEKGPKVLQQTELDQQSKKHSFFLTTAKPYLEKLLPAIKEMEMMALLIDSDGVVLALDGHPRALYEAKRINFVEGACWTETAVGTNAIGTALHISEPVAIQGSEHYSIASHLWNCSAAPIHHEDGSLAGVIDISCPAAGAHPHMLGIATAIAYAAERELAAKSREKELELISRFGERAASSVPMVLCNTKQHIISASMPIRTSMPDWQGRHLYELKERGYSIENAVTIGDGGTCFYLSEQKKKKAFRFNGVIGQSGRSQAMLMHLERAAATDASVCLSGETGTGKEVAARALHENSERRHGPFVAVNCGAIPSDLIESELFGYAEGAFTGAKRNGYKGAFQKANQGTLFLDEIGEISHSMQVALLRVLQERKITPIGGTKEIPVDIRVIAATHCDLRELAENGKIREDLFYRLHVYPIELPPLRDRTEDIPDLFEYYKQKNHWPGDLPSDFCNVLKQWKWPGNIRELFNVFERLSIRFPDGRLRDESLPALLEAAGLPASSAEKKPAAAGVLTFREQIQKDMMIKALESAKGNVSQAAKISGIPRSTFYKRLKKFNLSAESEGGSHHHHHH | soluble |
| MNRLAHHQGIYKFFFTLGLTLQLSKPVIKHLIHIVDALTTKGFSGTLTDIHHWSFHPNHRTTLSHFFTKSPWNEERLLGKLQEWILRRIERKNQPLFVSIDDTICQKTKPSSRATHAIEGCDWHYSHKDHQSVWGHSLVWLMVHTFTQAFPFAFRLYDKKAGRSKIDLAIEMLSSIKVKLTQPVYVLMDSWYPSKTLIEACLKQGFHVIAMLKTNRILYPKGIAIQAKQFARYIEPKDTRLVTVGQERYRVYRYEGAIHGLDDAVVLLAWKADQPMTPEHLHCVLSTDRGLGDEDILRYYAQRWTIECFFRQAKDQLKLDGYRVRHVRAVKRYWAVVLLASVYSIAESRQTLSAGLELLRSRKDHSVVEFIYDAAKQGIPIDVIKKQLRIA | not soluble |
| MKKFFQEIKADIKFKSAGPGQKLTDSAGEKTTKGKSPQLALRQPRQGPTDEAQMAAAAALARLEQKQPRARGPTSQDSIRNQVRKELQAEATSSNNPGAPGTNSVPEPKEEISPHLAVPGVFFICPLTGVTLRRDQRDAHIKQAILSHFSTDPVAASIMKIHTFNRDRDRVKLGVDTIAKYLDNIHLHPEEEKYQKIKLQNKVFQERINCLEGSHEFFEAIGFKKVTLPVPDQEGQEEFYVLGEDARAQPQNLARHKQQLLDAEPVRATLDRQLRVFRPSALASHFELPSDFFSLTAEEVKREQRLRTEAVERLSSLRTKAMREKEEQRELRKYTYALVRVRLPDGCLLQGTFYAREKLSALFRFVREALQNDWLPFELRASGGQKLEENEALALNECGLVPSALLTFSWDASVLEDIRAAGAEPAKSVLRPELLAAIEQLS | soluble |
| MHTSLMSYNQNMIPSGDDRPVFPTIDLFANTSLEELQQSLCAAVANYRDFLTRKILPFQQSWVVRVLSESGLDEETLRAIKSCVFTPCCSIPGAVQPDRICQHDSPIYIYTSLNLLSQYVEGKTLLRCYRKFVLASSLPPYRTDIPAEELKNVLNSILPGAYSMPHAVSCFVAILPSKKFTISMSKITTRGGAEEHFVVFSREENDIIPYDIVAVGKTLFSQSDEEFGLPNLSFDELQNLISTLEHHHHHH | not soluble |
| AHHHHHHGSGRFVVWPSELDSRLSRKYGRIVPRSIAVESPRVEEIVRAAEELKFKVIRVEEDKLNPRLSGIDEELRTFGMIVLESPYGKSKSLKLIAQKIREFRRRSA | not soluble |
| MSLARIKDVAELAGVNRSTVSRIINGEGKFREETRKKVEQAMAQLNYRPSAIARSLATSSSNMVGLLVTYYTGGFFGEMMEQVQTELDIHKKFLITAQGHHSAEGEKEAIQRFNDLRCDGYVLHSRYLSDDDLRELAKLPTPFVLLDRYVEGIEERCITFNHHHASRIAVEHLIAGGHKNIACITGPSLRHNSLLRKLGYVDAMKTAGIDIDESWCEEGNYGRQSGYDAMASILKRHPEVTAVFSCSEEMTVGAMQYLHEHKISVPEQISLTSFDSVDLCESLYPTVSAVHFPISDMARAAVQTLMGLVKKQEHIEKPVFEAKLKLRHADREGHHHHHH | soluble |
| MGNIIRIGMADLKASHHPAILTTLGLGSCVGIALYDRTTKIVGLAHAMLPDSSQVKNKTNAAKFVDTAIELLVKEMLSLGASKKRIVAKLAGGAQMFTFTQGAELMRIGQRNVAAAKSKLESLDIPVVSEDTGGNYGRTVELDSESGMLLIRTIGYGTKQI | not soluble |
| MGHHHHHHSHRNLDSRTFITIGDRNFEVEADDLVTISELGRGAYGVVEKVRHAQSGTIMAVKRIRATVNSQEQKRLLMDLDINMRTVDCFYTVTFYGALFREGDVWICMELMDTSLDKFYRKVLDKNMTIPEDILGEIAVSIVRALEHLHSKLSVIHRDVKPSNVLINKEGHVKMCDFGISGYLVDSVAKTMDAGCKPYMAPERINPELNQKGYNVKSDVWSLGITMIEMAILRFPYESWGTPFQQLKQVVEEPSPQLPADRFSPEFVDFTAQCLRKNPAERMSYLELMEHPFFTLHKTKKTDIAAFVKEILGEDS | not soluble |
| MGSDKIHHHHHHMMYIGLPQWQHPAWSRLGLNDLADYSRYFSCVEGNTTFYALPSREIVGRWRDMTHDNFRFCFKFPSTISHKAALQNCDSDVSLFYQCLEPIEHRIGQLWLQLPATFGPVLLPVLWRFLDALPQGFSYGVEVRHPLFFTKGDEERALNQGLQQRGINRVILKRHI | not soluble |
| MAAWKSWTALRLCATVVVLDMVVCKGFVEDLDESFKENRNDDIWLVDFYAPWCGHCKKLESIWNEVGLEMKSIGSPVKVGKMDATSYSSIASEFGVRGYPTIKLLKGDLAYNYRGPRTKDDIIEFAHRVSGALIRPLPSQQMFEHMQKRHRVFFVYVGGESPLKEKYIDAASELIVYTYFFSASEEVVPEVIFKI | soluble |
